Where no end group is shown, it is not given here. The star is where a group is joined. FITC = O=C1OC2(c3ccc(O)cc3Oc3cc(O)ccc32)c2ccc(NC(=S)*)cc21
Tests used:
Nsp9 = Nsp9 (SARS-CoV-2, UniProt P0DTD1); experiment: fluorescence polarisation; settings: both partners purified
Nsp16 = Nsp16 (SARS-CoV-2, UniProt P0DTD1 6799-7096); experiment: fluorescence polarisation; settings: both partners purified

Binder | binding result (Nsp9) | Kd (Nsp16) [µM] | also measured
MNIQEQGFPLDLGAS (also called Axin-1 peptide) [AXIN1_(1–15)] | binds |  | 
NQDMSAWFNLFADLDP (also called ICA1L peptide) [ICA1L_(450–465)] |  | 30 | 
FQGAWLGCPEPWEPLL (peptide, UniProt Q99466 1605-1620, looked up, also called NOTCH4 peptide) [NOTCH4_(1605–1620)] |  |  | Kd (Nsp9): ~130 µM
PAHPDGFALGRAPLA (also called LMTK3 peptide) [LMTK3_(22–36)] | binds |  | 
EDPLDSYLNFQALISP (also called FLJ43738 peptide) [FLJ43738_(76–91)] |  | 62 | 
AEGIDIGEMPSYDLVL (also called NKRF peptide) [NKRF_(8–23)] | binds |  | 
{FITC}-AEGIDIGEMPSYDLVL [FITC-NKRF_(8–23)] | binds |  | 
PGHSPADYLRFQDLVL (also called DYRK1B peptide; DYRK1B_(394–409)) [DYRK1B_(395–410)] |  | 56 | 

— PMC10499821 (Nature Communications, 2023)
